Experimental data from patent US11325966.

What was measured:
Assay in all cases: cell-based or functional assay
[1] = target: HIV-1 Env of pseudovirus 231966.c02 (HIV-1)
[2] = target: HIV-1 Env of pseudovirus 235-47 (HIV-1)
[3] = target: HIV-1 Env of pseudovirus 3016.v5.c45 (HIV-1)
[4] = target: HIV-1 Env of pseudovirus 3103.v3.c10 (HIV-1)
[5] = target: HIV-1 Env of pseudovirus 3817.v2.c59 (HIV-1)
[6] = target: HIV-1 Env of pseudovirus 6244_13_B5_4576 (HIV-1)
[7] = target: HIV-1 Env of pseudovirus 6480.v4.c25 (HIV-1)
[8] = target: HIV-1 Env of pseudovirus 6535.3 (HIV-1)
[9] = target: HIV-1 Env of pseudovirus 6545.v4.c1 (HIV-1)
[10] = target: HIV-1 Env of pseudovirus 6952.v1.c20 (HIV-1)
[11] = target: HIV-1 Env of pseudovirus A07412M1.vrc12 (HIV-1)
[12] = target: HIV-1 Env of pseudovirus BJOX010000.06.2 (HIV-1)
[13] = target: HIV-1 Env of pseudovirus BJOX015000.11.5 (HIV-1)
[14] = target: HIV-1 Env of pseudovirus C1080.c03 (HIV-1)
[15] = target: HIV-1 Env of pseudovirus C2101.c01 (HIV-1)
[16] = target: HIV-1 Env of pseudovirus CAP210.2.00.E8 (HIV-1)
[17] = target: HIV-1 Env of pseudovirus CAP45.2.00.G3 (HIV-1)
[18] = target: HIV-1 Env of pseudovirus CNE20 (HIV-1)
[19] = target: HIV-1 Env of pseudovirus CNE8 (HIV-1)
[20] = target: HIV-1 Env of pseudovirus Du156.12 (HIV-1)
[21] = target: HIV-1 Env of pseudovirus HIV-0013095-2.11 (HIV-1)
[22] = target: HIV-1 Env of pseudovirus HIV-001428-2.42 (HIV-1)
[23] = target: HIV-1 Env of pseudovirus MS208.A1 (HIV-1)
[24] = target: HIV-1 Env of pseudovirus P0402_c2_11 (HIV-1)
[25] = target: HIV-1 Env of pseudovirus PVO.4 (HIV-1)
[26] = target: HIV-1 Env of pseudovirus Q23.17 (HIV-1)
[27] = target: HIV-1 Env of pseudovirus Q842.d12 (HIV-1)
[28] = target: HIV-1 Env of pseudovirus QH0692.42 (HIV-1)
[29] = target: HIV-1 Env of pseudovirus R1166.c01 (HIV-1)
[30] = target: HIV-1 Env of pseudovirus REJO4541.67 (HIV-1)
[31] = target: HIV-1 Env of pseudovirus SC05_8C11_2344 (HIV-1)
[32] = target: HIV-1 Env of pseudovirus SC422661.8 (HIV-1)
[33] = target: HIV-1 Env of pseudovirus T251-18 (HIV-1)
[34] = target: HIV-1 Env of pseudovirus WEAU_d15_410_787 (HIV-1)
[35] = target: HIV-1 Env of pseudovirus X1193_c1 (HIV-1)
[36] = target: HIV-1 Env of pseudovirus X1632_S2_B10 (HIV-1)
[37] = target: HIV-1 Env of pseudovirus X2088_c9 (HIV-1)
[38] = target: HIV-1 Env of pseudovirus X2131_C1_B5 (HIV-1)
[39] = target: HIV-1 Env of pseudovirus ZM233M.PB6 (HIV-1)
[40] = target: HIV-1 Env of pseudovirus ZM53M.PB12 (HIV-1)

354BG8 (antibody)
IC50 in TZM-bl assay [1]: > 10 µg/mL
IC80 in TZM-bl assay [1]: > 10 µg/mL
IC50 in TZM-bl assay [2]: 0.058 µg/mL
IC80 in TZM-bl assay [2]: 0.224 µg/mL
IC50 in TZM-bl assay [3]: > 10 µg/mL
IC80 in TZM-bl assay [3]: > 10 µg/mL
IC50 in TZM-bl assay [4]: 0.024 µg/mL
IC80 in TZM-bl assay [4]: 0.061 µg/mL
IC50 in TZM-bl assay [5]: 0.706 µg/mL
IC80 in TZM-bl assay [5]: 4.49 µg/mL
IC50 in TZM-bl assay [6]: 0.091 µg/mL
IC80 in TZM-bl assay [6]: 0.38 µg/mL
IC50 in TZM-bl assay [7]: 0.006 µg/mL
IC80 in TZM-bl assay [7]: 0.023 µg/mL
IC50 in TZM-bl assay [8]: 0.007 µg/mL
IC80 in TZM-bl assay [8]: 0.022 µg/mL
IC50 in TZM-bl assay [9]: > 10 µg/mL
IC80 in TZM-bl assay [9]: > 10 µg/mL
IC50 in TZM-bl assay [10]: 0.023 µg/mL
IC80 in TZM-bl assay [10]: 0.086 µg/mL
IC50 in TZM-bl assay [11]: 0.011 µg/mL
IC80 in TZM-bl assay [11]: 0.037 µg/mL
IC50 in TZM-bl assay [12]: > 10 µg/mL
IC80 in TZM-bl assay [12]: > 10 µg/mL
IC50 in TZM-bl assay [13]: > 10 µg/mL
IC80 in TZM-bl assay [13]: > 10 µg/mL
IC50 in TZM-bl assay [14]: > 10 µg/mL
IC80 in TZM-bl assay [14]: > 10 µg/mL
IC50 in TZM-bl assay [15]: > 10 µg/mL
IC80 in TZM-bl assay [15]: > 10 µg/mL
IC50 in TZM-bl assay [16]: > 10 µg/mL
IC80 in TZM-bl assay [16]: > 10 µg/mL
IC50 in TZM-bl assay [17]: > 10 µg/mL
IC80 in TZM-bl assay [17]: > 10 µg/mL
IC50 in TZM-bl assay [18]: 0.002 µg/mL
IC80 in TZM-bl assay [18]: 0.005 µg/mL
IC50 in TZM-bl assay [19]: > 10 µg/mL
IC80 in TZM-bl assay [19]: > 10 µg/mL
IC50 in TZM-bl assay [20]: 0.01 µg/mL
IC80 in TZM-bl assay [20]: 0.036 µg/mL
IC50 in TZM-bl assay [21]: > 10 µg/mL
IC80 in TZM-bl assay [21]: > 10 µg/mL
IC50 in TZM-bl assay [22]: 0.035 µg/mL
IC80 in TZM-bl assay [22]: 0.126 µg/mL
IC50 in TZM-bl assay [23]: > 10 µg/mL
IC80 in TZM-bl assay [23]: > 10 µg/mL
IC50 in TZM-bl assay [24]: 0.008 µg/mL
IC80 in TZM-bl assay [24]: 0.024 µg/mL
IC50 in TZM-bl assay [25]: 0.072 µg/mL
IC80 in TZM-bl assay [25]: 0.252 µg/mL
IC50 in TZM-bl assay [26]: 0.005 µg/mL
IC80 in TZM-bl assay [26]: 0.015 µg/mL
IC50 in TZM-bl assay [27]: > 10 µg/mL
IC80 in TZM-bl assay [27]: > 10 µg/mL
IC50 in TZM-bl assay [28]: 0.106 µg/mL
IC80 in TZM-bl assay [28]: 0.383 µg/mL
IC50 in TZM-bl assay [29]: > 10 µg/mL
IC80 in TZM-bl assay [29]: > 10 µg/mL
IC50 in TZM-bl assay [30]: > 10 µg/mL
IC80 in TZM-bl assay [30]: > 10 µg/mL
IC50 in TZM-bl assay [31]: 0.017 µg/mL
IC80 in TZM-bl assay [31]: 0.048 µg/mL
IC50 in TZM-bl assay [32]: 0.058 µg/mL
IC80 in TZM-bl assay [32]: 0.368 µg/mL
IC50 in TZM-bl assay [33]: 0.399 µg/mL
IC80 in TZM-bl assay [33]: 2.29 µg/mL
IC50 in TZM-bl assay [34]: 0.031 µg/mL
IC80 in TZM-bl assay [34]: 0.112 µg/mL
IC50 in TZM-bl assay [35]: 0.07 µg/mL
IC80 in TZM-bl assay [35]: 0.207 µg/mL
IC50 in TZM-bl assay [36]: > 10 µg/mL
IC80 in TZM-bl assay [36]: > 10 µg/mL
IC50 in TZM-bl assay [37]: 0.003 µg/mL
IC80 in TZM-bl assay [37]: 0.01 µg/mL
IC50 in TZM-bl assay [38]: 0.014 µg/mL
IC80 in TZM-bl assay [38]: 0.056 µg/mL
IC50 in TZM-bl assay [39]: 0.058 µg/mL
IC80 in TZM-bl assay [39]: 0.371 µg/mL
IC50 in TZM-bl assay [40]: > 10 µg/mL
IC80 in TZM-bl assay [40]: > 10 µg/mL
